Experiments:
[1] = tested on: monoclonal antibody MV-001; assay: In vitro inhibition assay (ELISA), MV-001 binding to original epitope; parameters: species or system C57/Bl6 mice; conditions: OD at 10 μg peptide compared to original peptide
Procedure: 2. In vitro inhibition assay (ELISA)
Different amounts of peptides (concentrations ranging from 10 μg to 0.08 μg; serial dilutions), derived from Phage Display were incubated with the monoclonal antibody that was used for the screening procedure. Peptides diminishing subsequent binding of the antibody to the original epitope coated on ELISA plates were considered as inhibiting in this assay.

[2] = tested on: full length and/or truncated and modified forms of Aβ; assay: In vivo characterisation of mimotopes: detection of Aβ/truncated/modified forms; parameters: species or system C57/bl6 mice; key: +: All peptides listed in Table 4 mount specific immune reactions against full length and/or truncated and modified forms of Aβ or fragments thereof; conditions: MV-001 derived mimotopes; mimotope vaccination
Procedure: Inhibiting as well as non-inhibiting peptides were coupled to KLH and injected into mice (wildtype C57/Bl6 mice; subcutaneous injection into the flank) together with an appropriate adjuvant (aluminium hydroxide). Animals were vaccinated 3-6 times in biweekly intervals and sera were taken biweekly as well. Titers to injected peptides, as well as to an irrelevant peptide were determined with every serum. Furthermore, titers against the recombinant human Aβ protein, and against original peptides were determined respectively. In general sera were analysed by reaction against peptides coupled to Bovine Serum Albumin (BSA) and recombinant full length proteins which were immobilised on ELISA plates. Titers were determined using anti mouse IgG specific antibodies. For detailed results see FIGS. 6, 7 and 8 respectively.
Female C57/bl6 mice, 5-6 mice per group, were subcutaneously immunized with 30 μg peptide coupled to KLH. Control groups were administered original epitope-KLH conjugates respectively. As adjuvant alum was used (always 1 mg per mouse). […] The in vitro ELISA assay to determine the antibody titer was performed with sera of single mice after each vaccination in a two week interval (see FIGS. 6 and 7 respectively). The wells of the ELISA plate were coated with mimotope-BSA conjugate and an irrelevant peptide-BSA conjugate (negative control). The positive control was performed by reaction of the parental antibody with the respective mimotope-BSA conjugate. The detection was performed with anti-mouse IgG. Additionally, recombinant proteins were immobilised on ELISA plates and sera reacted accordingly. FIGS. 6 to 8 show representative examples for assays used to characterise mimotopes in vivo.

[3] = tested on: monoclonal antibody MV-001; assay: In vitro binding assay (ELISA), parental antibody MV-001; parameters: species or system C57/Bl6 mice; conditions: peptide-BSA on ELISA plate; OD halfmax, dilution factor 1:X of parental AB MV-001
Procedure: 1. In vitro binding assay (ELISA)
Peptides derived from Phage Display as well as variants thereof were coupled to BSA and bound to ELISA plates (1 μM; as indicated in the respective figures) and subsequently incubated with the monoclonal antibody that was used for the screening procedure to analyse binding capacity of identified peptides.

[4] = biological target: monoclonal antibody MV-001; assay: ELISA, peptide-BSA coated, MV-001; conditions: for Binding Capacity: scale: code
[5] = biological target: monoclonal antibody MV-001; assay: inhibition ELISA; competitor: coated original epitope p4371; conditions: for Inhibition Capacity: scale: code

| Molecule | Binding Capacity [4] | Inhibition Capacity (code (weaker than original epitope)) [5] | Inhibition Capacity [1] | also measured |
| --- | --- | --- | --- | --- |
| LMFRHNC [p4386] | – | – | 1 (Weaker than original epitope (OD of 10 μg peptide below 3 times of original peptide)) | Detection of Aβ/truncated/modified forms [2]: +; Binding Capacity [3]: 3 (strong binding :>20000) |
| DGLLFKHC [p4741] | – | – | 1 (Weaker than original epitope (OD of 10 μg peptide below 3 times of original peptide)) | Binding Capacity [3]: 3 (strong binding :>20000) |
| YEFRHAQC [p4748] | – | – | – | Detection of Aβ/truncated/modified forms [2]: +; Binding Capacity [3]: 3 (strong binding :>20000) |
| ELFKHHLC [p4714] | – | – | – | Detection of Aβ/truncated/modified forms [2]: +; Binding Capacity [3]: 3 (strong binding :>20000) |
| SPNQFRHC [p4707] | – | – | 1 (Weaker than original epitope (OD of 10 μg peptide below 3 times of original peptide)) | Detection of Aβ/truncated/modified forms [2]: +; Binding Capacity [3]: 3 (strong binding :>20000) |
| SQFRHYC [p4385] | – | – | 1 (Weaker than original epitope (OD of 10 μg peptide below 3 times of original peptide)) | Detection of Aβ/truncated/modified forms [2]: + |
| SHFRHGC [p4389] | – | – | 1 (Weaker than original epitope (OD of 10 μg peptide below 3 times of original peptide)) | – |
| EELRHSVC [p4746] | – | – | 1 (Weaker than original epitope (OD of 10 μg peptide below 3 times of original peptide)) | Binding Capacity [3]: 3 (strong binding :>20000) |
| QDFRHYC [p4380] | – | – | 1 (Weaker than original epitope (OD of 10 μg peptide below 3 times of original peptide)) | – |
| LPFRHGC [p4388] | – | – | 1 (Weaker than original epitope (OD of 10 μg peptide below 3 times of original peptide)) | – |
| TSFRHGC [p4382] | – | – | 1 (Weaker than original epitope (OD of 10 μg peptide below 3 times of original peptide)) | – |
| CSEFKH [p4800] | – | – | 2 (strong inhibition (as original epitope; OD of 10 μg peptide below 2 times of original peptide)) | Binding Capacity [3]: 3 (strong binding :>20000) |
| DEHPFRHC [p4730] | – | – | 1 (Weaker than original epitope (OD of 10 μg peptide below 3 times of original peptide)) | Detection of Aβ/truncated/modified forms [2]: +; Binding Capacity [3]: 3 (strong binding :>20000) |
| HEFRHC [p4803] | – | – | 2 (strong inhibition (as original epitope; OD of 10 μg peptide below 2 times of original peptide)) | Binding Capacity [3]: 3 (strong binding :>20000) |
| CHEFRH [p4802] | – | – | 2 (strong inhibition (as original epitope; OD of 10 μg peptide below 2 times of original peptide)) | Binding Capacity [3]: 3 (strong binding :>20000) |
| QFKHDLC [p4391] | – | – | 1 (Weaker than original epitope (OD of 10 μg peptide below 3 times of original peptide)) | – |
| NWFPHPC [p4392] | – | – | 1 (Weaker than original epitope (OD of 10 μg peptide below 3 times of original peptide)) | Binding Capacity [3]: 1 (weak binding :<4000) |

| Molecule | Binding Capacity [4] | Inhibition Capacity (code (weaker than original epitope)) [5] | Inhibition Capacity [1] | also measured |
| --- | --- | --- | --- | --- |
| SEFKHC [p4801] | – | – | 1 (Weaker than original epitope (OD of 10 μg peptide below 3 times of original peptide)) | Binding Capacity [3]: 3 (strong binding :>20000) |
| TPFRHTC [p4384] | – | – | 1 (Weaker than original epitope (OD of 10 μg peptide below 3 times of original peptide)) | – |
| EEFKYSC [p4393] | – | – | 1 (Weaker than original epitope (OD of 10 μg peptide below 3 times of original peptide)) | – |
| SAFRHHC [p4387] | – | – | 1 (Weaker than original epitope (OD of 10 μg peptide below 3 times of original peptide)) | – |
| THMEFRRC [p4745] | – | – | – | Binding Capacity [3]: 3 (strong binding :>20000) |
| QDFRHYC [p4380] | 2 | 1 | – | – |
| EELRHSVC [p4746] | 3 | 1 | – | – |
| LPFRHGC [p4388] | 2 | 1 | – | – |
| TPFRHTC [p4384] | 2 | 1 | – | – |
| NWFPHPC [p4392] | – | 1 | – | Binding Capacity (code (weak binding, OD halfmax 1:<4000)) [4]: 1 |
| ADHDFRHC [p4740] | 3 | 1 | – | – |
| EEFKYSC [p4393] | 2 | 1 | – | – |
| CHEFRH [p4802] | 3 | – | – | Inhibition Capacity [5]: 2 |
| QFKHDLC [p4391] | 2 | 1 | – | – |
| SEFKHGC [p4381] | 3 | 1 | – | – |
| HEFRHC [p4803] | 3 | – | – | Inhibition Capacity [5]: 2 |
| TSFRHGC [p4382] | 2 | 1 | – | – |

More lines, main results first:

| Binding Capacity [4] | Inhibition Capacity (code (weaker than original epitope)) [5] | Molecule | Inhibition Capacity [1] | also measured |
| --- | --- | --- | --- | --- |
| 3 | 1 | DEHPFRHC [p4730] | – | – |
| 3 | 1 | TSVFRHC [p4383] | – | – |
| 3 | 1 | LMFRHNC [p4386] | – | – |
| 3 | 1 | SEFKHC [p4801] | – | – |
| 2 | 1 | SAFRHHC [p4387] | – | – |
| 3 | – | CSEFKH [p4800] | – | Inhibition Capacity [5]: 2 |
| 2 | 1 | SQFRHYC [p4385] | – | – |
| 3 | 1 | ILFRHGC [p4390] | – | – |
| 3 | 1 | SPNQFRHC [p4707] | – | – |
| 3 | – | TLHEFRHC [p4715] | – | Inhibition Capacity [5]: 2 |
| 3 | 1 | DGLLFKHC [p4741] | – | – |
| 3 | 1 | THTDFRHC [p4725] | – | – |
| 3 | 1 | QSEFKHWC [p4738] | – | – |
| 2 | 1 | SHFRHGC [p4389] | – | – |
| 3 | – | TEFRHKAC [p4753] | – | Inhibition Capacity [5]: 2 |

Reference: patent US8613931B2, “Compounds for treating beta-amyloidoses” (Affiris AG, priority 2008, dated 2013)
